The record followed here is the domain aggregation screens of Martell et al. (2025).

The data set can be described thus: soluble fraction after stress (log2 fold change); higher = more stays soluble; pooled small domains, quantitative proteomics. The settings on record: stress: 75 degC.
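Also: 20 min heating vs room temperature control held 20 min.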

Take “HMSSVEVWINGKSSGLTSDNRAQILQQLPAESIERIEVIDNPSAKFSAEGSAGIINIVLKKD”: the “soluble fraction (log2)” value was found to be 0.195.
Then “HMSSVRDNGDLELVPGDRIRHDDYGEGRVTAVTGVGSKRIAHAVFDSVGERKLLIKLSPIEKI”, with -0.0574; and “HMSSWMTKDGKIKPISKWAGVPMTSQQQADYAAGKVVELTNIPDKQGQLNTVYLKFNPEKQRPTTSLNDPR”, with -0.00849; and “HMSSYETVTLNGQRYFKYKVKSGEGLYAISRMFSTPIAEIIRHNPSSNAGLKNGQELLIPVN”, with -0.356.
On to “HMSSYMQMQLERLESLLQKNDLTDSDKYDIRQLVEDLDKVPESVSPNLVGAYMTIKNRYASVLKTVL”, for which the “soluble fraction (log2)” value turned out to be 0.0189.
The same measure for “HMSTANISIEQAKEIALNHANLTSNQVIFSRTELDYDNGIQKYEVEFYYNNREYSYEINANTGDILGYEQ”: -0.722; for “HMSTANIVVPDVKGKTFEEAKKAIEAEGLTAKAEGDESGVVQKTSPSYGVSVESGSEVTLTLVKSDD”: 0.494; for “HMSTDNINYKNILIASLLIHAAKIDENYTENEKNIIKKALIELDEIDSKKADEIMILAEKKE”: -0.265.
The same measure for “HMSTGYEMVREVANQGSFSKAANSLGVSGPAVSKQVKSLEERLGLVLFHRTTRAVSLTQAGRQLVDVLN”: 0.114; for “HMSTIKEKIIQYLDFKGISKYDFYQKTGVSNGVLSQKSGMSEDNIMRFLSYYDDINTDWLFYGKGEMIKT”: -2.06.
Then “HMSTKLLEVNIFDDSKWVNKTIMDSDIPEDILIVMIKRGDEVIVPKGSTIINKGDILVLSANNFDNLLN”, with -2.45; and “HMSTMTEQEAFGLWERINDFIARTGNEPNRNSNDAHEVRMAEALNFIRIKVAEQRNSQSNSEAQNN”, with -0.263.
On to “HMSTNDIFISGDKLVLKNTTGQMDVFDMAGRKVLSSTNNVSEMNVSSLPKGVYVVSASIGGSKMKAKVYK”, for which the “soluble fraction (log2)” value was 0.536.
Consider “HMSTQGRRIEILRHLTQTKKKADVNFVELGRTFGTSDTTIRKDLDWLIKNEYWENHGEWKPTQAGLNMI”, for which the “soluble fraction (log2)” value was determined as 0.0518.
As for “HMSTRKAFVNGDGVRLRSGPGTNHSIRASLTKGQTVFVTGTKDGWASVSVQGGASGWVSADLLKYE”, the “soluble fraction (log2)” value turned out to be 0.59.
Then “HMSTRYVRTPAGQAEIQARVFKLSRPVRNLLLVINDSRSIDDWLVQVHGITADDVAMLRAEGLIAEVS”, with -3.06; and “HMSTSEQVYTTDKVNVRREADTSSEKLGSLEKGTAISRTGTEGEWSVVNYGGVTGYIKTEFLTTEQPQ”, with 0.63; and “HMSTSFQVQVSVLDLRIRKEPTVKGQEVGKISKGIHTITETRSADGYTWGKLESGQGWIALEFTTKLD”, with -3.72.
Regarding “HMSTSLIEFTIDRNNSIANKMIMDANIPEDILVVMIKRNGDVFVPNGSTKILPGDILVLSGNKLKY”, the “soluble fraction (log2)” value was -1.69.
In the case of “HMSTTDGIERFLASGAVKGIGRTMAARIVEHFGSRTLTVMESEPERLTEVAGIGRKKAESIAASYAELS”, the “soluble fraction (log2)” value is -0.247.
Then “HMSTTYAPYLLGETEQEAIRMARNAGLDPQVVRQSDKSEAGTVILQSHDFGFAMKRGAVILITVSSGPLQ”, with -2.13.
Turning to “HMSTVTEVHYIAFKNGRIVDIKAALTGSAVTATSIKEQPKIENYNYTTSEVRDGILYHTYAPVA”, the “soluble fraction (log2)” value was -2.37.
Then “HMSVADNALSRQAIESRIALFIQNEDPNHPRSDADIQKELAQAGVVISRRAITKYRNHLHIPSASLRRR”, with -1.16.
“HMSVAPISYSQFESYLEQGKVASVAVGQDTIAGRFTAPVDGKSQFVTTIVNPQILDRIDKSGVEITGV”: the “soluble fraction (log2)” value was 0.144.
The same measure for “HMSVAVKAPLQGTVMKVNVKPGDTVTKGAPVAVIEALKMENDVPAPQDGVVASVDVKSGDSVKTDQVLLTL”: 0.563.
The same measure for “HMSVDAMDEANERKMAKTFNMIVLGGLLKIRPIVSIESVIKALRKTLPERHHHLIPMNEEAIHIGMDII”: 0.0832; for “HMSVDDEQLLKIIDDIFQQNPQAVTDAKTDSNAIHFLIGQVMKETKGHADHAISKEIIEKKLS”: 0.0407; for “HMSVDEVEALYLKIAEDRLEGKLPDKVSESDLMRRYGLTKAQLGAILQRIVHEGWIERTPGHGWRFLPIL”: -0.538.
The same measure for “HMSVFMIIVLKQHAPQEFVDMLMSSIKAKGVQIDVSKGARKTILGLVGNTSVIDREQIAGYEYVDKVIRV”: -1.94; for “HMSVFTDIYHQADHETKLMLIHEIKIVGDEKEFRLLKSIIDSTSNDLSKEANDALNAIKIRLALSK”: -2.34; for “HMSVFTPLTRSELETFLAPYELGRLLDFQGIAAGSENTNYFISLEKGEYVLTLVERGPVAEMPFFIELLD”: -1.33.
Regarding “HMSVGDLLENLIRETRAQFSAPPESLGVAEKRRFVALLSQKGGFLLKGAVSRAASVLGVSEQTVYRYLKDS”, the “soluble fraction (log2)” value was -1.83.
The same measure for “HMSVGDLPPEAREIWKLLDGRELSLDLLAEETGRETGALLSTLMMLEMKLLVEHGSDMVYRRIPRR”: -2.85; for “HMSVHSAELKKLKAHLLGIIGRELETQPSTENREEMVRQILHQSYESLRLNLPMQLKEELFNEILAEVL”: -0.459; for “HMSVLEHVSGNVRRLRLQAGLSQEALARAASVSRRMLVGIESGDVNVSLSTLDRIAAALGVLFPDLVQAP”: -2.53.
The same measure for “HMSVLPAREQVAAILRQAILLRKFKEGQDLTLKDAAELVGSSITPVREAFQILENEGLIELRPNKGAVVL”: -0.627; for “HMSVPEDLYFRELEVEGNKVRISGIASTNNRVSALMRNFDQSEWFRDPSLIKVESKSPGVNEFEIVMTRI”: 0.125; for “HMSVPNVVGRDQVEASSLLESAGFKVSVKQSYSDSVEQGKVISQSPSGSTTVSPGSTVTITVSQ”: 0.395.
The same measure for “HMSVPRPSAVEVTSLVTGVRDLLPHLGEGYVERVLVEFGFKVDETINALLEGNLPKHLQDLDPSLTKEI”: -1.24; for “HMSVPVDEVLAALTQKLTDLRTQAMAAKDFSAVDALKAALTEAGVEVRMSKTGVELIAGPRVDAKKLGTL”: 0.395.
For “HMSVRPMVEILRVVGSPSPVWVTWARNRAAWLYETGIRPQQRLRMADGTEVLIRLVGEFAHILVVGG”, the “soluble fraction (log2)” value came to 0.092.
Then “HMSVSATQMDAFVRQLRARLSSADGLDDAARLVRQDLEPFLGRFSDETERDFAAAIEQVRGSIRPVEI”, with -0.139; and “HMSVSEAELAEKYHADDLEALKSGKLHEFQENLIDRNGKKYTVQTMKDILTLSDGTRLLLGIGLD”, with 0.131.
The same measure for “HMSVTDDQLRVFTNKSGTKIKAKIVEVSDDKVKLIRDDNKKFIVPINSLSEEDQDYLRDWVSNEAVEP”: -0.118; for “HMSVTIDAGGKVYLQESEIADDQLVPRLVAISNNGYDKPIYLRADKTVGYGRVAEVMSLLNAAGFTKLVLV”: -0.513; for “HMSVTRELMLVKVKVTPEQRAGVSAIVDIFRANIIDVGKESMIIELTGNKSKLEAFIDLLDGYEILELART”: -1.46.
Turning to “HMSVTVPDVKRMQAEDAKALLSRYRLRSEVIDSVYVDNIPRGAVVEQIPRENSSVKENRIVFLTINSN”, the “soluble fraction (log2)” value is -0.569.
The same measure for “HMSVTYRYSYVYNGNTYSDGWSVRRAIENNENKRFGPEPSDLDHEAQKQARVTFWAEHGVEYKEQEVV”: -1.24; for “HMSVYIGVDQAKSIAAEHAGLSNSAVTFSKAKLENDDGMTVYEVEFFYQGTEYDYKIDASTGSILEYDLDR”: -1.64; for “HMSWEDSLLKQAREIIDMYPQKRSAVGPLLHLAQSKDGYISDDSISVISKLVGITEVQLKSVSTFYSMYK”: -1.74.
The same measure for “HMSWEELLEHLEKAAERGEEVRIAGVTLHDEEDFKRALRWLKEWL”: -2.7; for “HMSYIGEEKAKSIAVSNVKGAGTNNVVKVEFDYDDGRAVYEVKVVYNAMEYEFEIDASNGKILSRDAESIY”: -1.45.
Turning to “HMSYKFDSLAIILNKLDGKETVNVSSLSDELEVSARTVHRYIGTLQVAGFPIEYDKTKNSYIFSEGYTL”, the “soluble fraction (log2)” value was -0.794.
Then “HMSYQFKIKNNAAVEVTVSEKNNLLGSTYGDKATVAAGMEKNVTFYTDKPDVVVDTNGNFTITVHDKEIII”, with 0.0601; and “HMSYSYIYNYALKVKMDISSTGGKKPYAYYYYDHSYKLAEEILSLSEETESIELQNKYDELKDFYENP”, with -1.79.
Regarding “HMSYTWHDMYLLAQEYQKEHGNLIIPRNYKGKNGLNLGYWLYKEKLKYRQGKLAPEKIIALEHIGIVWT”, the “soluble fraction (log2)” value was -1.25.
Consider “HMSYYKEMIRLADSIADKAHEGQTDRNGWPYISHPRRVALGARKLVSEMASSTSPDTSLEELKAEVQIVAL”, for which the “soluble fraction (log2)” value was -0.321.
Then “HMTAAPEVRVEGLFKGAAVLKIDGQQVMLKKGRSHSSGVTLVDANAHRAIVEIDGQRHELALHMA”, with -0.0588.
The same measure for “HMTADIRFLNSRKFYIYKVEKGETLFSISQKFNIPQEEIIQFNKDINQQGLKAKTKLWVPAYSWL”: -3.46; for “HMTAGTGIAYSEFRSKVQEGQVKDVAIAPDRITGTLSSGQKFSTVPVNDPGLPKMLDDFNVKYSGQA”: 0.139.
For the sequence “HMTAIWKTITATLTHDIATGKYAPGDRLPTEAQLAARFGVNRHTVRRAISDMNESGLTYSRRGAGVFVAQ”, the “soluble fraction (log2)” value is -2.56.
The same measure for “HMTALAVGDRVKMDKSATIYGTMRKFAAWVYATKLYVRGIDGNRVVVSTLKSGAITGAVDKKHLTK”: -1.61; for “HMTAMDTQQKKLIIMYHDIHRLRNVEHFTIQRIADHLLLNFRTVKKFLEMTQEEFDKFSENRW”: -2.89; for “HMTANPSTEEIMARVEAIPLPIKRLPPGQIVQAQTVAATVLRSNPGLDLAKAWKLAYATVTGQE”: -0.15.
As to “HMTANTQVENIRLELQRYMDEHGISQVTVARGIGKTHPVISQFLNNKYPGDVEEVARAIESWLTKQHEKAA”, the “soluble fraction (log2)” value is -0.128.
With “HMTAPELGIRQDGNTLVIFWPSSVTGYVLKSADAVDTPPASWTSVTHTTVGDEHRAEITPTGNSRFFRLV”, the “soluble fraction (log2)” value was -0.156.
For the sequence “HMTAPQAQDYARVPDVLGLDMRESAQALRLDGFEMNAQGDGLAARQSPIGGSYAPEGTQVLVTFEM”, the “soluble fraction (log2)” value came out at 0.053.
The same measure for “HMTAQLAAQERTHALDMFMGGYKFSSKPAENGVRAEFEKKNFTLEDGKFLGGDEFMKSLMENDDYKGAFV”: 0.406; for “HMTASKSTVSTPEKVVYHIVFPKETKYSIAKKYGITIEELEKRNPEIIPSLSVGQKLVIKGTAPK”: -0.236.
Then “HMTATDRQLQLIAYTAARLMAEQGIADFNAAKRKAIQTLGLPNNAKLPGNADVEAQLRAYQRIF”, with -0.605.
